B1: 6A6Q (antibody, human IgG1, lambda, L234A L235A, V domains shown)
VH: EVQLVESGGGVVQPGGSLRLSCAASGFTFDDYAMHWVRQAPGKGLEWVSLISGDGGSTYYADSVKGRFTISRDNSKNSLYLQMNSLKASDTAMYYCARPRWGRYSSSWPFDYWGQGTLVTVSS
VL: QSALTQPASVSGSPGQSITISCTGTSSDVGTYNYVSWYQQHPGKAPKLMIYDVTDRPSGISNRFSGSKSGNTASLTISGLQAEDEGNYYCSSYTSQRSWVFGGGTKLTVLG
notes: Full IgG made in CHO cells, lambda constant region; Variant of 6A6 whose light chain glycosylation site NRS was mutated to QRS; also called TEM8-6A6Q
B2: 3B3 (antibody, human IgG1, kappa, L234A L235A, V domains shown)
VH: EVQLVQSGGGLVKPGGSLRLSCAASGFTFSSYSMNWVRQAPGKGLEWVSSISSSSSYIYYADSVKGRFTISRDNAKNSLYLQMNSLRAEDTAVYYCARVRPPYGMDVWGQGTLVTVSS
VL: NIQMTQSPSSVSASVGDTVTISCRASQGISNWLGWYQQRPGEAPKLLIYAASHLQSGVPSRFSGSGSGTDFVLTITSLQPEDFATYYCQQSNSFPLAFGGGTKLEIKR
notes: Full IgG made in CHO cells, kappa constant region; also called TEM8-3B3
B3: 3A3 (antibody, human IgG1, kappa, L234A L235A, V domains shown)
VH: QVQLVQSGPEVKKPGAPVKISCKTSGYIFDDYGITWVRQAPGQGLEWLGWISTYNGKTSFAQKVQGRLTMTTDISTNTASMELRGLRSDDTALYYCARVFSRYIPFYFDSWGQGTLVTVSS
VL: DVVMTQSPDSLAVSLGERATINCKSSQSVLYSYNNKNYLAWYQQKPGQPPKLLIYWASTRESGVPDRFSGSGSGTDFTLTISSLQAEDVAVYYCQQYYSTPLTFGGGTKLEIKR
notes: Full IgG made in CHO cells: variable regions joined to the IgG heavy chain constant region and the kappa constant region; also called TEM8-3A3
B4: 11B7 (antibody, human IgG1, lambda, L234A L235A, V domains shown)
VH: QVQLVQSGGGVVQPGRPLRLSCAASGFNLGSYAMSWVRQAPGKGLEWVSAISGSGGSTYYADSVKGRFTISRDNSKNTLYLQMNSLRAEDTAVYYCAKILGPGNLNYYYYYGMDVWGQGTTVTVSS
VL: SSELTQDPAVSVALGQTVRITCQGDSLRNSYASWYQQKPGQAPVLVIYGNNNRPSGIPDRVSGSRSGNTASLTITGAQAEDEADYYCNSRDSSGNHVVFGGGTELTVLG
notes: Full IgG made in CHO cells, lambda constant region; also called TEM8-11B7
B5: 7E3 (antibody, human IgG1, lambda, L234A L235A, V domains shown)
VH: QVQLVESGGGLVNPGGSLRLSCAVSGFTSSGFSINWVRQAPGKGLEWVSSISGIGDSIFYADSVKGRFTISRDNAKNLVFLQMNSVKAEDTAVYYCVRDKWGWGTYSLFDYWGQGTLVTVSS
VL: QAVLTQPPSASGTPGQRVTISCSGSSSNIASNVVSWYQQLPGTAPKVLIYSNNRRPSGVPDRFSGSKSGASASLAISGLQSDDETHYYCAAWDDSLKGPVFGGGTQLTVLG
notes: Full IgG made in CHO cells, lambda constant region; also called TEM8-7E3

T1 sequence (Q9CZ52 31-562): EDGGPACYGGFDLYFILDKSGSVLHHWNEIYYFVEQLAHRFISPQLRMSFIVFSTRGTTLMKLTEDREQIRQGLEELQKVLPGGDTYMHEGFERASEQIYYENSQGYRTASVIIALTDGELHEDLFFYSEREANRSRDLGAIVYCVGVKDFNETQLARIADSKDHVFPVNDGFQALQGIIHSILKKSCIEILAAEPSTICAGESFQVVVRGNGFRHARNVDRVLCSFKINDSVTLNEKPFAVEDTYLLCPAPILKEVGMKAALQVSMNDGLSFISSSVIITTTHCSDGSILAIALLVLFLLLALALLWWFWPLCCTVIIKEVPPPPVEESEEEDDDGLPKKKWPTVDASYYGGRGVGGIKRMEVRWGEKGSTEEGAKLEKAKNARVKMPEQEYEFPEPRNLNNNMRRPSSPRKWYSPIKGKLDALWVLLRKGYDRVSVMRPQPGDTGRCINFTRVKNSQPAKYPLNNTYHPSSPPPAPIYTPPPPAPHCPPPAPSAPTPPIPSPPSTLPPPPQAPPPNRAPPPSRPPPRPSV

The first assay addresses T1, mouse TEM8 on CHO-mTEM8 cells (mouse, UniProt Q9CZ52 31-562).
T1 construct: also called murine TEM8
The assay is described as follows: FACS on CHO-mTEM8 cells.
As for B1, it took 1.16 nM to reach a half-maximal effect (EC50).

Molecule B2 showed an EC50 of 2.14 nM.

Molecule B3 registered an EC50 of 1.48 nM.

As to B4, the EC50 came to 1.21 nM.

For B5, the response was half-maximal at 1.41 nM (EC50).

The target of another assay is human TEM8 on CHO-hTEM8 cells (human, UniProt Q9H6X2 33-564). The assay is described as follows: FACS on CHO-hTEM8 cells.
Sequence of human TEM8 on CHO-hTEM8 cells (Q9H6X2 33-564): as the sequence (Q9CZ52 31-562) above, with R40K, S104R, A241S, V297I, V327A, S458N, T468A, P471T, A493P counted along it
Consider B1, for which the EC50 stood at 0.63 nM.

B2 came in with an EC50 of 1.51 nM.

Regarding B3, the EC50 amounted to 0.71 nM.

B4 had an EC50 of 0.85 nM.

B5 yielded an EC50 of 0.75 nM.

The values are drawn from patent publication EP4722246A1 (Inxmed (Nanjing) Co., Ltd., dated 2024).
